According to patent publication US20170016905A1 (VAR2 PHARMACEUTICALS, published 2017):

Assays:
[1] = target: CSPG (bovine) (D8428, Sigma) (bovine) (UniProt P21793); assay: quartz crystal microbalance (Attana A100), CSPG coated, 1:1 fit
[2] = target: T1, CSPG (bovine) (D8428, Sigma) (bovine, UniProt P21793 31-360, carries chondroitin sulfate A (CSA) glycosaminoglycan chain(s); the filing attributes the binding of VAR2CSA to this glycan); assay: quartz crystal microbalance (Attana A100); legend: N/A = no KD value could be determined, due to a lack of binding to CSA
T1 construct: also called chondroitin sulfate proteoglycan; CSA proteoglycan

[3] = target: T1, CSPG (bovine) (D8428, Sigma); assay: quartz crystal microbalance (Attana A100), CSPG coated, 1:1 fit

T1 sequence (P21793 31-360): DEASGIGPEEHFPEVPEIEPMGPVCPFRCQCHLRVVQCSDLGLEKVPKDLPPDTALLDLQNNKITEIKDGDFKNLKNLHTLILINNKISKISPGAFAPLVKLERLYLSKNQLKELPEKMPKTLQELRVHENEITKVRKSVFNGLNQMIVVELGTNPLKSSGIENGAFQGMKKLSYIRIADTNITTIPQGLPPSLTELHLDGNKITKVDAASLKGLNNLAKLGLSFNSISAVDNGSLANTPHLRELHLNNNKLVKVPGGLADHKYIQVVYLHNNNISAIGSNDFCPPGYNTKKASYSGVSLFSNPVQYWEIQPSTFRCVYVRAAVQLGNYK
Chain of CSPG (bovine) (D8428, Sigma) (bovine) (P21793 31-360): as above

| Molecule | Kd [1] | binding result [2] | further results |
| --- | --- | --- | --- |
| ID1-DBL3ε (FCR3, Baculo) | 0.3 nM |  |  |
| ID1-DBL4ε (FCR3, Baculo) | 8.6 nM |  |  |
| DBL2X-DBL4ε (FCR3, Baculo) | 2.4 nM |  |  |
| ID1-DBL2Xa (3D7, Baculo) (other, not shown: V5 and His tag at the C-terminal (modified pAcGP67-A)) LSFILNSSDANNPSEKIQKNNDEVCNCNESGIASVEQEQISDPSSNKTCITHSSIKANKKKVCKHVKLGVRENDKDLRVCVIEHTSLSGVENCCCQDFLRILQENCSDNKSGSSSNGSCNNKNQEACEKNLEKVLASLTNCYKCDKCKSEQSKKNNKNWIWKKSSGKEGGLQKEYANTIGLPPRTQSLCLVVCLDEKGKKTQELKNIRTNSELLKEWIIAAFHEGKNLKPSHEKKNDDNGKKLCKALEYSFADYGDLIKGTSIWDNEYTKDLELNLQKIFGKLFRKYIKKNNTAEQDTSYSSLDELRESWWNTNKKYIWLAMKHGAGMNSTTCCGDGSVTGSGSSCDDIPTIDLIPQYLRFLQEWVEHFCKQRQEKVKPVIENCKSCKESGGTCNGECKTECKNKCEVYKKFIEDCKGGDGTAGSSWVKRWDQIYKRYSKYIEDAKRNRKAGTKNCGPSSTTNAA |  | no binding |  |
| DBL1X-DBL2Xa (FCR3, Baculo) (other, Range derived by me from the FCR3 DBL1X forward primer and the FCR3 DBL2Xa reverse primer (STTNAA), which ends 93 residues before the DBL2Xb border; not shown: V5 and His tag at the C-terminal (modified pAcGP67-A)) HSDSGKYDPCEKKLPPYDDNDQWKCQQNSSDGSGKPENICVPPRRERLCTYNLENLKFDKIRDNNAFLADVLLTARNEGEKIVQNHPDTNSSNVCNALERSFADLADIIRGTDQWKGTNSNLEKNLKQMFAKIRENDKVLQDKYPKDQKYTKLREAWWNANRQKVWEVITCGARSNDLLIKRGWRTSGKSDRKKNFELCRKCGHYEKEVPTKLDYVPQFLRWLTEWIEDFYREKQNLIDDMERHREECTREDHKSKEGTSYCSTCKDKCKKYCECVKKWKTEWENQENKYKDLYEQNKNKTSQKNTSRYDDYVKDFFEKLEANYSSLENYIKGDPYFAEYATKLSFILNPSDANNPSGETANHNDEACNCNESGISSVGQAQTSGPSSNKTCITHSSIKTNKKKECKDVKLGVRENDKDLKICVIEDTSLSGVDNCCCQDLLGILQENCSDNKRGSSSNDSCDNKNQDECQKKLEKVFASLTNGYKCDKCKSGTSRSKKKWIWKKSSGNEEGLQEEYANTIGLPPRTQSLYLGNLPKLENVCEDVKDINFDTKEKFLAGCLIVSFHEGKNLKKRYPQNKNSGNKENLCKALEYSFADYGDLIKGTSIWDNEYTKDLELNLQNNFGKLFGKYIKKNNTAEQDTSYSSLDELRESWWNTNKKYIWTAMKHGAEMNITTCNADGSVTGSGSSCDDIPTIDLIPQYLRFLQEWVENFCEQRQAKVKDVITNCKSCKESGNKCKTECKTKCKDECEKYKKFIEACGTAGGGIGTAGSPWSKRWDQIYKRYSKHIEDAKRNRKAGTKNCGTSSTTNAA |  | no binding |  |
| DBL1-ID2b (FCR3, Baculo) (other, Range derived by me from the FCR3 DBL1X forward primer (HSDSGK) and the FCR3 ID2b reverse primer (TDTNINK); also called DBL1X-ID2b; not shown: V5 and His tag at the C-terminal (modified pAcGP67-A)) HSDSGKYDPCEKKLPPYDDNDQWKCQQNSSDGSGKPENICVPPRRERLCTYNLENLKFDKIRDNNAFLADVLLTARNEGEKIVQNHPDTNSSNVCNALERSFADLADIIRGTDQWKGTNSNLEKNLKQMFAKIRENDKVLQDKYPKDQKYTKLREAWWNANRQKVWEVITCGARSNDLLIKRGWRTSGKSDRKKNFELCRKCGHYEKEVPTKLDYVPQFLRWLTEWIEDFYREKQNLIDDMERHREECTREDHKSKEGTSYCSTCKDKCKKYCECVKKWKTEWENQENKYKDLYEQNKNKTSQKNTSRYDDYVKDFFEKLEANYSSLENYIKGDPYFAEYATKLSFILNPSDANNPSGETANHNDEACNCNESGISSVGQAQTSGPSSNKTCITHSSIKTNKKKECKDVKLGVRENDKDLKICVIEDTSLSGVDNCCCQDLLGILQENCSDNKRGSSSNDSCDNKNQDECQKKLEKVFASLTNGYKCDKCKSGTSRSKKKWIWKKSSGNEEGLQEEYANTIGLPPRTQSLYLGNLPKLENVCEDVKDINFDTKEKFLAGCLIVSFHEGKNLKKRYPQNKNSGNKENLCKALEYSFADYGDLIKGTSIWDNEYTKDLELNLQNNFGKLFGKYIKKNNTAEQDTSYSSLDELRESWWNTNKKYIWTAMKHGAEMNITTCNADGSVTGSGSSCDDIPTIDLIPQYLRFLQEWVENFCEQRQAKVKDVITNCKSCKESGNKCKTECKTKCKDECEKYKKFIEACGTAGGGIGTAGSPWSKRWDQIYKRYSKHIEDAKRNRKAGTKNCGTSSTTNAAASTDENKCVQSDIDSFFKHLIDIGLTTPSSYLSNVLDDNICGADKAPWTTYTTYTTTEKCNKERDKSKSQSSDTLVVVNVPSPLGNTPYRYKYACQCKIPTNEETCDDRKEYMNQWSCGSARTMKRGYKNDNYELCKYNGVDVKPTTVRSNSSKLDGNDVTFFNLFEQWNKEIQYQIEQYMTNANISCIDEKEVLDSVSDEGTPKVRGGYEDGRNNNTDQGTNCKEKCKCYKLWIEKINDQWGKQKDNYNKFRSKQIYDANKGSQNKKVVSLSNFLFFSCWEEYIQKYFNGDWSKIKNIGSDTFEFLIKKCGNNSAHGEEIFNEKLKNAEKKCKENESTDTNINK |  |  | Kd [3]: 1.5 nM |
